This data set relates to Soluble human recombinant p97 (melanotransferrin).
Chain of Soluble human recombinant p97 (melanotransferrin) (chain, as listed by the source): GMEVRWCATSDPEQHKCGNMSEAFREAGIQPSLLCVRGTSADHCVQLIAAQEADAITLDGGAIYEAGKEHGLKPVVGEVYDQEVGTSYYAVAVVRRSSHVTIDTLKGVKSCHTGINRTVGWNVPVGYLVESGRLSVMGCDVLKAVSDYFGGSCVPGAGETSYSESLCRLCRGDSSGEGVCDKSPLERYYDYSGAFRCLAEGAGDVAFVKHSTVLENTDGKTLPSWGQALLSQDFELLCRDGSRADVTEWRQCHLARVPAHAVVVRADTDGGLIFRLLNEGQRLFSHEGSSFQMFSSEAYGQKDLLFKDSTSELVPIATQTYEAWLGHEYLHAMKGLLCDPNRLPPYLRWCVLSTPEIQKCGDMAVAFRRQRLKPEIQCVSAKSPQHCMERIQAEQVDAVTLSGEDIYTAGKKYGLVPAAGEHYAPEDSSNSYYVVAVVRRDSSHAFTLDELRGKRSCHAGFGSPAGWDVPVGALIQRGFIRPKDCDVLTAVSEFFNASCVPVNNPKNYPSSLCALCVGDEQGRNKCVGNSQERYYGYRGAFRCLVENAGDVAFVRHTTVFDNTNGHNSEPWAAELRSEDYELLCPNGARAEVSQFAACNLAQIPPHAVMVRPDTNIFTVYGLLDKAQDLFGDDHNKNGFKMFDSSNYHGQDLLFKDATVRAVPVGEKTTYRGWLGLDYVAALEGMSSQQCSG

With “pro-urokinase plasminogen activator (pro-uPA)”, the “VLK-pNA hydrolysis (plasminogen activation by pro-uPA) with 70 nM p97 and 30 nM plasminogen, after 180 min” value was “the VLK-pNA hydrolysis is 4-fold higher after 180 min”; the “VLK-pNA hydrolysis by 90 nM pro-uPA with 70 nM p97, without plasminogen” value is given as “goes from less than 50 AU/min in the absence of p97 to more than 450 AU/min when p97 is added”; the “half-maximal stimulation of plasminogen cleavage by pro-uPA (initial rates of plasmin activity)” value is reported as “half-maximal stimulation occurring at 25±6 nM”; the “increase of catalytic efficiency of plasminogen activation by pro-uPA with 250 nM p97” value is on record as “increasing the catalytic efficiency by a factor of 2.4-fold”.

The values are drawn from US20070053894.
